{
  "source": "IntAct's records for PubMed 23825108",
  "target": "mmac_human MMACHC (UniProt Q9Y4U1)",
  "sequence (Q9Y4U1 whole entry)": "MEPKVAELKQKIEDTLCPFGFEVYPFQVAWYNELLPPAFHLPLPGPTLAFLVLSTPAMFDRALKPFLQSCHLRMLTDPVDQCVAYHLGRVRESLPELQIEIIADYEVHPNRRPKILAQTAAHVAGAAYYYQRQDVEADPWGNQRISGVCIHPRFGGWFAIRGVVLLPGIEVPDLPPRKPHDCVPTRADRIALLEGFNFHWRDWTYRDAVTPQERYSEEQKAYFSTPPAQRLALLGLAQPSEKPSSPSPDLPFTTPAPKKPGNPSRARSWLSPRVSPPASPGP",
  "data": [
    {"substance": "Methionine synthase (Homo sapiens), Q99707 P1173L", "values": [
      {"measurement": "effect of a mutation on the interaction", "result": "increasing interaction strength"}
    ]}
  ]
}
